Columns and labels:
HeLa Kyoto [1] = assay: solubility in G1/S (NP-40 vs SDS abundance) (log2 ratio); higher = more soluble; settings: cell cycle stage: G1/S
HeLa Kyoto [2] = assay: melting temperature (median over replicates), in situ; higher = more thermally stable
HeLa Kyoto [3] = assay: solubility change mitosis vs G1/S (difference of NP-40 vs SDS log2 ratios) (log2 ratio difference); higher = more soluble in mitosis
HeLa Kyoto [4] = assay: thermal stability score vs G1/S (z-score of summed log2 fold changes over temperatures); higher = more thermally stable than in G1/S
[5] = cell cycle stage: early G1 (4.5 h after nocodazole release)
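Wherever melting temperature (median over replicates), in situ is given: HeLa Kyoto cells synchronized by double thymidine or nocodazole block, proteins quantified by TMT10plex mass spectrometry, three independent biological replicates.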
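Wherever solubility change mitosis vs G1/S (difference of NP-40 vs SDS log2 ratios) is given: synchronized HeLa Kyoto cells (double thymidine block for G1/S, nocodazole release for mitosis), protein amounts in NP-40 versus SDS lysates quantified by mass spectrometry, three biological replicates.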
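Wherever solubility in G1/S (NP-40 vs SDS abundance) is given: HeLa Kyoto cells arrested at G1/S by double thymidine block, proteins quantified by TMT10plex mass spectrometry in mild NP-40 versus SDS extracts, three biological replicates.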
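Wherever thermal stability score vs G1/S (z-score of summed log2 fold changes over temperatures) is given: synchronized HeLa Kyoto cells, proteins quantified by TMT10plex mass spectrometry, three biological replicates, mitosis taken 0.5 h after nocodazole release, G1/S directly after double thymidine block.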

Sequence of TMEM55B (chain, as listed by the source): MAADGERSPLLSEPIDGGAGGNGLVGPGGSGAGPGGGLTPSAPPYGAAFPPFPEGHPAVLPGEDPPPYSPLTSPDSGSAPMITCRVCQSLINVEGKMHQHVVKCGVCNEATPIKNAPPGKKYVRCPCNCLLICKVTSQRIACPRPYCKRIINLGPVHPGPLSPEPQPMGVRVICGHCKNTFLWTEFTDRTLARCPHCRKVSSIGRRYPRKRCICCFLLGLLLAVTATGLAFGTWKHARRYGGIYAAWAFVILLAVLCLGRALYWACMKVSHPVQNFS

Substance	solubility in G1/S (log2) (HeLa Kyoto [1])	melting temperature (HeLa Kyoto [2]; cell cycle stage: G1/S) [°C]	melting temperature (HeLa Kyoto [2]; cell cycle stage: mitosis) [°C]	solubility change mitosis (log2) (HeLa Kyoto [3])	thermal stability score (HeLa Kyoto [4]; [5])	thermal stability score (HeLa Kyoto [4]; cell cycle stage: mitosis)
MMLSTEGREGFVVKVRGLPWSCSADEVMRFFSDCKIQNGTSGIRFIYTREGRPSGEAFVELESEEEVKLALKKDRETMGHRYVEVFKSNSVEMDWVLKHTGPNSPDTANDGFVRLRGLPFGCSKEEIVQFFSGLEIVPNGMTLPVDFQGRSTGEAFVQFASQEIAEKALKKHKERIGHRYIEIFKSSRAEVRTHYDPPRKLMAMQRPGPYDRPGAGRGYNSIGRGAGFERMRRGAYGGGYGGYDDYGGYNDGYGFGSDRFGRDLNYCFSGMSDHRYGDGGSSFQSTTGHCVHMRGLPYRATENDIYNFFSPLNPMRVHIEIGPDGRVTGEADVEFATHEDAVAAMAKDKANMQHRYVELFLNSTAGTSGGAYDHSYVELFLNSTAGASGGAYGSQMMGGMGLSNQSSYGGPASQQLSGGYGGGYGGQSSMSGYDQVLQENSSDYQSNLA [HNRNPH2]	-0.272	45	45.2	-0.0078	1.83	2.38
MAACGRVRRMFRLSAALHLLLLFAAGAEKLPGQGVHSQGQGPGANFVSFVGQAGGGGPAGQQLPQLPQSSQLQQQQQQQQQQQQPQPPQPPFPAGGPPARRGGAGAGGGWKLAEEESCREDVTRVCPKHTWSNNLAVLECLQDVREPENEISSDCNHLLWNYKLNLTTDPKFESVAREVCKSTITEIKECADEPVGKGYMVSCLVDHRGNITEYQCHQYITKMTAIIFSDYRLICGFMDDCKNDINILKCGSIRLGEKDAHSQGEVVSCLEKGLVKEAEEREPKIQVSELCKKAILRVAELSSDDFHLDRHLYFACRDDRERFCENTQAGEGRVYKCLFNHKFEESMSEKCREALTTRQKLIAQDYKVSYSLAKSCKSDLKKYRCNVENLPRSREARLSYLLMCLESAVHRGRQVSSECQGEMLDYRRMLMEDFSLSPEIILSCRGEIEHHCSGLHRKGRTLHCLMKVVRGEKGNLGMNCQQALQTLIQETDPGADYRIDRALNEACESVIQTACKHIRSGDPMILSCLMEHLYTEKMVEDCEHRLLELQYFISRDWKLDPVLYRKCQGDASRLCHTHGWNETSEFMPQGAVFSCLYRHAYRTEEQGRRLSRECRAEVQRILHQRAMDVKLDPALQDKCLIDLGKWCSEKTETGQELECLQDHLDDLVVECRDIVGNLTELESEDIQIEALLMRACEPIIQNFCHDVADNQIDSGDLMECLIQNKHQKDMNEKCAIGVTHFQLVQMKDFRFSYKFKMACKEDVLKLCPNIKKKVDVVICLSTTVRNDTLQEAKEHRVSLKCRRQLRVEELEMTEDIRLEPDLYEACKSDIKNFCSAVQYGNAQIIECLKENKKQLSTRCHQKVFKLQETEMMDPELDYTLMRVCKQMIKRFCPEADSKTMLQCLKQNKNSELMDPKCKQMITKRQITQNTDYRLNPMLRKACKADIPKFCHGILTKAKDDSELEGQVISCLKLRYADQRLSSDCEDQIRIIIQESALDYRLDPQLQLHCSDEISSLCAEEAAAQEQTGQVEECLKVNLLKIKTELCKKEVLNMLKESKADIFVDPVLHTACALDIKHHCAAITPGRGRQMSCLMEALEDKRVRLQPECKKRLNDRIEMWSYAAKVAPADGFSDLAMQVMTSPSKNYILSVISGSICILFLIGLMCGRITKRVTRELKDR [GLG1]	-0.0893	56.3	56.5	-0.0491	-1.04	-1.91
MDC1	-0.295	51.2	52.1	0.434	-1.53	1.05
TMEM55B	0.135	53.4	53.5	-0.162	-1.51	-1.58
MGAYARASGVCARGCLDSAGPWTMSRALRPPLPPLCFFLLLLAAAGARAGGYETCPTVQPNMLNVHLLPHTHDDVGWLKTVDQYFYGIKNDIQHAGVQYILDSVISALLADPTRRFIYVEIAFFSRWWHQQTNATQEVVRDLVRQGRLEFANGGWVMNDEAATHYGAIVDQMTLGLRFLEDTFGNDGRPRVAWHIDPFGHSREQASLFAQMGFDGFFFGRLDYQDKWVRMQKLEMEQVWRASTSLKPPTADLFTGVLPNGYNPPRNLCWDVLCVDQPLVEDPRSPEYNAKELVDYFLNVATAQGRYYRTNHTVMTMGSDFQYENANMWFKNLDKLIRLVNAQQAKGSSVHVLYSTPACYLWELNKANLTWSVKHDDFFPYADGPHQFWTGYFSSRPALKRYERLSYNFLQVCNQLEALVGLAANVGPYGSGDSAPLNEAMAVLQHHDAVSGTSRQHVANDYARQLAAGWGPCEVLLSNALARLRGFKDHFTFCQQLNISICPLSQTAARFQVIVYNPLGRKVNWMVRLPVSEGVFVVKDPNGRTVPSDVVIFPSSDSQAHPPELLFSASLPALGFSTYSVAQVPRWKPQARAPQPIPRRSWSPALTIENEHIRATFDPDTGLLMEIMNMNQQLLLPVRQTFFWYNASIGDNESDQASGAYIFRPNQQKPLPVSRWAQIHLVKTPLVQEVHQNFSAWCSQVVRLYPGQRHLELEWSVGPIPVGDTWGKEVISRFDTPLETKGRFYTDSNGREILERRRDYRPTWKLNQTEPVAGNYYPVNTRIYITDGNMQLTVLTDRSQGGSSLRDGSLELMVHRRLLKDDGRGVSEPLMENGSGAWVRGRHLVLLDTAQAAAAGHRLLAEQEVLAPQVVLAPGGGAAYNLGAPPRTQFSGLRRDLPPSVHLLTLASWGPEMVLLRLEHQFAVGEDSGRNLSAPVTLNLRDLFSTFTITRLQETTLVANQLREAASRLKWTTNTGPTPHQTPYQLDPANITLEPMEIRTFLASVQWKEVDG [MAN2B1]	0.313	57.1	56.6	-0.109	-0.143	-1.1
MWLWEDQGGLLGPFSFLLLVLLLVTRSPVNACLLTGSLFVLLRVFSFEPVPSCRALQVLKPRDRISAIAHRGGSHDAPENTLAAIRQAAKNGATGVELDIEFTSDGIPVLMHDNTVDRTTDGTGRLCDLTFEQIRKLNPAANHRLRNDFPDEKIPTLREAVAECLNHNLTIFFDVKGHAHKATEALKKMYMEFPQLYNNSVVCSFLPEVIYKMRQTDRDVITALTHRPWSLSHTGDGKPRYDTFWKHFIFVMMDILLDWSMHNILWYLCGISAFLMQKDFVSPAYLKKWSAKGIQVVGWTVNTFDEKSYYESHLGSSYITDSMVEDCEPHF [GDE1]	0.138	51.5	55.9	-0.1	0.685	-1.42

Reference: the supplement of paper PMC5998384
